The source of these data is article PMC6988801, “Characterization of a Dimeric Arginase From Zymomonas mobilis ZM4” (Frontiers in Microbiology, 2019).

As a reminder, the inhibition is the drop in the measured response relative to a control, in per cent. The term stoichiometry N denotes the number of molecules, sites or subunits per partner or assembly. The term Km denotes the substrate concentration at which the rate is half of its maximum.

The target of one data set is T1, zmARG (Zymomonas mobilis, UniProt Q5NQE9).
T1 construct: gene ZMO0432; full length Met1-Lys290; E. coli BL21(DE3) Star, pSKB3, N-terminal His6 with TEV site (25 extra residues); GH left after cleavage; EDTA-dialysed; dimer 64 kDa
The experiment in a line: arginase activity assay kit, urea colorimetric at […] nm. Conditions: read-out: % inhibition at 5 mM. The format is biochemical.

Data set [1] deals with the molecule itself. The experiment in a line: AF4-MALS; asymmetrical flow field-flow fractionation with multi-angle light scattering; Eclipse DUALTEC AF4, DAWN Heleos II 18-angle MALS; Zimm model.
Substrate in the data set “purified protein”: N=C(N)NCCC[C@H](N)C(=O)O
The experiment in a line: purified protein. The data set is classed as biochemical, Zymomonas mobilis. As to conditions: Mn-dependent enzyme; metal, pH and temperature of the kinetic run not given.

As to `N[C@@H](CCCCB(O)O)C(=O)O` [ABH, 2(S)-amino-6-boronohexanoic acid], the inhibition at 5000 µM on zmARG was approximately 95%.

B1: arginase from Zymomonas mobilis ZM4 (zmARG) (enzyme, Zymomonas mobilis subsp. mobilis ZM4)
chain: GHMSSINKPLRLIFPQWQGGDNPPYYLGSQLLAWLSPDPKGAVEEVPVPKPTGEPLQEENGIVGRSILIDQLSEARQLIEKHTPDSLVVLGGDCLVSLAPFSWLLEKYKDKLGILWIDSHPDVQTPKEYKNAHAHVLGELMGNGDSDFTRTVKHPVSPQKIMIAGIHDPLPYEANFISEHKIQTCSPEQVRSGAQPVLDWIKNEKIEYLAIHIDLDVLDPHNFRSVLFAKPGRGQHDFGDVAEGKLNIPDVVKLANQAASISKAVGLTIAEHLPWDALNLKNMLEELPLIGK
notes: two additional amino acids left at the N-terminus after TEV cleavage of the vector-encoded His6 tag; arginase zmARG, product of the ZMO0432 gene of Zymomonas mobilis subsp. mobilis ZM4, Met1-Lys290, amplified from genomic DNA; Two zinc ions are modelled in the active site of each subunit in the crystal; A Se-Met substituted form (made in B834 (DE3)) was used for phasing only; also called ZMO0432 …
Take B1: the “stoichiometry N” value in data set [1] was found to be 2.

B2: zmARG (Zymomonas mobilis subsp. mobilis ZM4 = ATCC 31821) (protein)
chain: MSSINKPLRLIFPQWQGGDNPPYYLGSQLLAWLSPDPKGAVEEVPVPKPTGEPLQEENGIVGRSILIDQLSEARQLIEKHTPDSLVVLGGDCLVSLAPFSWLLEKYKDKLGILWIDSHPDVQTPKEYKNAHAHVLGELMGNGDSDFTRTVKHPVSPQKIMIAGIHDPLPYEANFISEHKIQTCSPEQVRSGAQPVLDWIKNEKIEYLAIHIDLDVLDPHNFRSVLFAKPGRGQHDFGDVAEGKLNIPDVVKLANQAASISKAVGLTIAEHLPWDALNLKNMLEELPLIGK
notes: full length Met1-Lys290; E. coli BL21(DE3) Star, pSKB3, N-terminal His6 with TEV site (25 extra residues); GH left after cleavage; EDTA-dialysed; dimer 64 kDa
As for B2, in the data set “purified protein”, the Km was 6.8 mM and the kcat is recorded as 302 s^–1.
